From the supplement of paper PMC10724198
± gives the standard deviation of the averaged measurements.

Tested on: Saccharomyces cerevisiae
Assay: protein stability index of tFT-peptide fusion (C-terminal peptide) (PSI (0-1 scale)); higher = more stable (slower turnover)
Settings: genetic background: wild type; temperature: 30 C
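Also: PSI is a weighted mean of sequencing reads over stability bins, variants kept only with over 10 reads, mCherry proximal and sfGFP distal, peptide attached via GGGS linker.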

Sequence	protein stability index
LRNWIGGTLGGG	0.7 ± 0.0095
LRPASPVGRQTQ	0.691 ± 0.04
LRPFLFSALPLT	0.672 ± 0.01
LRPLKVSGGGRG	0.685 ± 0.045
LRPSPGYRLGIH	0.791 ± 0.1
LRPVPLCPAALL	0.695 ± 0.037
LRRPSPPTPSPP	0.86 ± 0.2
LRRVKSGPYFRF	0.684 ± 0.074
LRSLLYDKVISL	0.676 ± 0.055
LRSMSPPPHSLA	0.688 ± 0.058
LRTHPPGPLPLA	0.654 ± 0.12
LRTLALSYTSLT	0.664 ± 0.035
LRVRTLGLPLVY	0.569 ± 0.026
LRVYCVIPLSGM	0.526 ± 0.049
LSARVSYRITLR	0.599 ± 0.019
LSASAWCSSLTR	0.714 ± 0.047
LSCALCLLGFRC	0.647 ± 0.029
LSCFVFRLSWFL	0.556 ± 0.11
LSCLFYSYSVSS	0.607 ± 0.068
LSDFFLDREGRV	0.654 ± 0.034
LSDIDLLGLPIL	0.66 ± 0.085
LSEDGGHRWHRI	0.796 ± 0.087
LSELCFAPRSPE	0.706 ± 0.046
LSFAVFIDFFTA	0.5223 ± 0.003
LSFFLFLLSPFY	0.582 ± 0.028
LSFFYLLSSYFL	0.62 ± 0.019

Sequence	protein stability index
LSFLSDFCLWVL	0.659 ± 0.053
LSFPAPLPLFNT	0.767 ± 0.037
LSFSSLYFPSLC	0.651 ± 0.081
LSFTSVLGQIPV	0.705 ± 0.039
LSGVSGALVFVG	0.676 ± 0.047
LSLLFLSLSLLR	0.61 ± 0.042
LSLPHPSPLSFS	0.718 ± 0.038
LSLPSPRPPPSP	0.713 ± 0.063
LSLSVNLPLFPT	0.648 ± 0.067
LSNFLFYGLCPG	0.651 ± 0.081
LSNLQPPISVPL	0.6473 ± 0.006
LSPDSLGVLVEY	0.6272 ± 0.0058
LSPGCLFLLPFL	0.701 ± 0.066
LSPLLSLPRCPT	0.7 ± 0.04
LSPLPHGLPFST	0.736 ± 0.015
LSPPLPRAPHLS	0.678 ± 0.077
LSPPQRISLIPY	0.659 ± 0.03
LSPPRSAPPPPR	0.699 ± 0.014
LSPSDSPSPPAS	0.6499 ± 0.0016
LSPTRPATRSPP	0.6826 ± 0.0014
LSQPRDGMRWCA	0.6191 ± 0.0035
LSRMTNFKEKEG	0.669 ± 0.03
LSSCVRVSFLFF	0.588 ± 0.028
LSSPPHVRSSPF	0.695 ± 0.029
LSSPPSRPFAPS	0.721 ± 0.089
LSSPSPSCSLPP	0.701 ± 0.077

Sequence	protein stability index
LSSPTHTPHPPS	0.701 ± 0.0097
LSSSWDLTHFDC	0.714 ± 0.033
LSTPASVLLSSG	0.682 ± 0.011
LSTPPDLNPLIF	0.654 ± 0.034
LSVEAGRGELLW	0.69 ± 0.067
LSVGPIWFSCQA	0.605 ± 0.023
LSVLHATFGRCD	0.645 ± 0.017
LSVQVLSLRPRA	0.688 ± 0.036
LSYCLLALFFPL	0.501 ± 0.009
LTAGGGEACGPP	0.625 ± 0.015
LTFFRSSPPRPY	0.739 ± 0.031
LTGHVGNMWDAA	0.86 ± 0.025
LTILEPYFLLGP	0.732 ± 0.21
LTILRSPLPSLS	0.701 ± 0.019
LTKTAHVGQLWL	0.708 ± 0.025
LTLLFLHPFPST	0.753 ± 0.1
LTNISKIKILRY	0.653 ± 0.032
LTRPHPPPVRTP	0.711 ± 0.083
LTSDGGLSGCSL	0.67 ± 0.029
LTWVVNSGKGRC	0.918 ± 0.087
LTYVQPTKGTLG	0.654 ± 0.05
LVCYHLSLPSVR	0.675 ± 0.052
LVDHLEMSTTSL	0.724 ± 0.017
LVFLGLCGTDFV	0.676 ± 0.12
LVFRSGWVSLIG	0.641 ± 0.044
LVGGRGSRSVEA	0.739 ± 0.12

Sequence	protein stability index
LVGLCSVFPSLV	0.716 ± 0.008
LVHPPPPLLPPA	0.6 ± 0.018
LVKKVKSSLASL	0.65 ± 0.076
LVLERKVDSKRK	0.761 ± 0.084
LVLGRCWMSVPR	0.535 ± 0.014
LVLSGSAFFYLG	0.666 ± 0.029
LVLVEAPASRNP	0.72449 ± 0.00013
LVRCRKGEGRGA	0.701 ± 0.032
LVRDGQSHSVWN	0.655 ± 0.098
LVRRTLWGSGCL	0.666 ± 0.013
LVSGCLCRKVLV	0.531 ± 0.0017
LVVSLSYSFRSV	0.585 ± 0.045
LWGSGVYGKNEC	0.703 ± 0.052
LWKAGRIGTIWS	0.714 ± 0.016
LWLCLERFPCSR	0.74 ± 0.042
LWPQFPPRQLVD	0.755 ± 0.069
LWPSLRRFHSTS	0.714 ± 0.2
LWVGGKRREVMG	0.706 ± 0.032
LWVPPRSGRFGG	0.681 ± 0.014
LWWASRLRVPTP	0.674 ± 0.093
LYCLVEGVYTLI	0.662 ± 0.06
LYGREPAGAEPT	0.633 ± 0.022
LYHARTIRQSAK	0.701 ± 0.018
LYPVPLSPPPAD	0.676 ± 0.026
LYVFFRFPSCLS	0.555 ± 0.018
MAINAGYYKWRH	0.767 ± 0.053

Sequence	protein stability index
MALAVRVVNCGA	0.591 ± 0.0087
MATLRVPTLSPD	0.5743 ± 0.004
MAWTGIDAEVCV	0.67 ± 0.028
MCGENVSWSCRS	0.685 ± 0.038
MEDSRSDSSGSP	0.6534 ± 0.00074
MESIIHPNSGIV	0.744 ± 0.13
MFGCGSRGSGVV	0.695 ± 0.093
MFLPNPTLLTLN	0.559 ± 0.022
MGGLFGWLVFWI	0.653 ± 0.27
MGGMGRGGRREI	0.692 ± 0.022
MGKEELDKKDEG	0.625 ± 0.032
MGYYDGIRYKEV	0.735 ± 0.092
MILNLLLFRSKK	0.67 ± 0.05
MKPPIGGNKPGL	0.726 ± 0.017
MKRRSEGDLLQP	0.64 ± 0.047
MKSSPFRASLDT	0.676 ± 0.094
MNLAGRRAVEEW	0.659 ± 0.024
MNPRLTNKNNSS	0.765 ± 0.058
MNPSADYSIGAR	0.688 ± 0.062
MNVHGHERLRPS	0.678 ± 0.066
MPARGLAWLPVS	0.654 ± 0.064
MPPRNAENRSLP	0.6793 ± 0.003
MPRSGRLSSRKE	0.718 ± 0.023
MPVWGGSASRAL	0.713 ± 0.066
MRAIRPGHSDLV	0.629 ± 0.043
MRRAQADRVYRL	0.7097 ± 0.0024

Sequence	protein stability index
MRRNGRNILGVA	0.729 ± 0.054
MRVKRVEVVRGG	0.6903 ± 0.0061
MRWVISEDPGFR	0.695 ± 0.018
MSGPHGGVADRD	0.676 ± 0.054
MSKSLQTSSHKT	0.663 ± 0.018
MTEFSESEGFIF	0.735 ± 0.064
MTMGNWLRLKRR	0.62 ± 0.024
MTSCAVDHPERR	0.703 ± 0.0047
MTWQSASGNRVA	0.699 ± 0.056
MVISTRARCMFF	0.6727 ± 0.0059
MVSMFRLFLGLV	0.589 ± 0.016
MVWCVSRGEGPV	0.762 ± 0.037
MVYLSSQYSATT	0.661 ± 0.039
MWVRKPNGNGSF	0.6877 ± 0.0055
MYLLSFRALGSS	0.54 ± 0.0098
MYTCMSSNPLAC	0.66 ± 0.039
NAKQVYVSVMTR	0.5 ± 0.063
NCAPVPLSPADS	0.685 ± 0.032
NEGYLIQGVSMG	0.706 ± 0.0084
NELRREVLEEDL	0.657 ± 0.0085
NFFGPAIFLRRR	0.678 ± 0.022
NFVLACYSYNYW	0.523 ± 0.011
NGREHHLESSYN	0.654 ± 0.038
NGSGVSEDRDEK	0.6298 ± 0.0034
NGTLQKGGLRRQ	0.6547 ± 0.00088
NGVLGYAVLEGE	0.705 ± 0.044

Sequence	protein stability index
NHHETRNDCSST	0.771 ± 0.12
NHQKFILAACGT	0.68 ± 0.029
NIKLKVCKEEMR	0.5706 ± 0.0012
NIKNQEVKTHDT	0.6796 ± 0.0054
NIKPEDRNSTNA	0.633 ± 0.087
NIRETVILRIMQ	0.606 ± 0.048
NIYDFQPPVSGH	0.77 ± 0.052
NKARVDCNRSRC	0.781 ± 0.2
NKDEVHRRRGRI	0.718 ± 0.017
NKDKNDDRKLLG	0.723 ± 0.12
NKDQKTKKNKRK	0.661 ± 0.075
NKFETCIANMYI	0.718 ± 0.058
NKHVMELPGEPG	0.647 ± 0.0079
NKIDAGTPEKHR	0.626 ± 0.041
NKIKKTQKKKLG	0.766 ± 0.1
NKKDCFRNRKWE	0.593 ± 0.03
NKKKKHKNSKNN	0.704 ± 0.055
NKKKKKKSTKRN	0.691 ± 0.044
NKKKKQRGKKQK	0.725 ± 0.045
NKKKKQRINIRG	0.749 ± 0.068
NKRKNVFESTNA	0.678 ± 0.019
NLCRFHFRNRFS	0.565 ± 0.011
NLDFGYAERWQG	0.768 ± 0.06
NLHLVRNEELVL	0.6743 ± 0.0036
NLITKWTCMRLF	0.511 ± 0.014
NLRRPLYYNGSV	0.757 ± 0.076

Sequence	protein stability index
NNNKKKDDNIDM	0.618 ± 0.079
NPMSLTTKRKTE	0.651 ± 0.11
NPQRGLNAQLFG	0.656 ± 0.045
NPQTVNSPIFPT	0.752 ± 0.018
NPTDIAINTGIS	0.742 ± 0.0081
NQAQTQQMKTEW	0.608 ± 0.05
NQAWYFVRLAGD	0.776 ± 0.022
NQCRSQVRQNGY	0.762 ± 0.15
NQEPRVSFCRDS	0.716 ± 0.044
NQRCLRGKIVRC	0.633 ± 0.03
NRDSRTLGSTVG	0.6744 ± 0.0011
NRGPPNMRQITP	0.712 ± 0.085
NRKGNKHEKKYE	0.691 ± 0.0039
NRNIRKKKIKNK	0.668 ± 0.054
NRRERQQREVYN	0.741 ± 0.21
NRRGGTLLATLF	0.659 ± 0.017
NRSERIKDNRGK	0.723 ± 0.025
NRSFIITRSVLS	0.683 ± 0.029
NSALQELNKAVG	0.625 ± 0.029
NSESVRLGLGNE	0.705 ± 0.054
